This is an account of results in patent publication US20160002355A1 (Genentech, published 2016).

Assay [1] deals with T1, anti-gH antibody (anti-HCMV antibody).
T1 construct: Anti-HCMV monoclonal antibody with a human IgG Fc (detected with anti-human IgG Fc)
Briefly: Biacore. Background: Surface plasmon resonance follows binding to a sensor surface in real time, without labels.

The target is the same in assay [2]. The experiment in a line: preliminary anti-HCMV human PK ELISA, anti-ID coat 1 ug/mL, anti-gH in 1% NHS, HRP-sheep anti-huIgG. How it is done:
The assay was carried out as follows: microtiter ELISA plates were coated with anti-idiotypic monoclonal antibodies at 1 μg/mL in PBS overnight. Anti-CI and anti-gH were diluted in 1% NHS and added to the wells, being subsequently detected with 50 ng/mL (in-well concentration) of HRP-Sheep anti-huIgG.

The target of assay [3] is T2, anti-Complex I antibody (anti-HCMV antibody).
T2 construct: also called anti-CI; anti-CI antibody
T2 sequence (VH, as listed by the source, chain 1 of 2): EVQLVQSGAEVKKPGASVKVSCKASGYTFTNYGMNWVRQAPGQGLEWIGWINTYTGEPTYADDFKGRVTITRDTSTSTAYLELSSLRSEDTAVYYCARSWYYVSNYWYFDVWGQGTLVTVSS
T2 sequence (VL, as listed by the source, chain 2 of 2): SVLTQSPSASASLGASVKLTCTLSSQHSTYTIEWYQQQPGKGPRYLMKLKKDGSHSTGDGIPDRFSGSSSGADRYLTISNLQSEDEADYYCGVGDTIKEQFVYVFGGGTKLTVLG
The experiment in a line: Biacore.

Assay [4] addresses T2, anti-Complex I antibody (anti-HCMV …). The experiment in a line: anti-CI clinical PK ELISA; coat 4.25B10.15 1 ug/mL; 8G8 1 ug/mL; against unspiked human serum. As to the method: (§1) The plates are washed three times with 400 μl per well per cycle of wash buffer. 200 μl per well of blocking buffer (PBS/0.5% BSA/0.05% polysorbate 20/0.05% ProClin 300, pH 7.4±0.1) is added, and the plates are incubated at room temperature with shaking for 1-3 hours. Standard curves are prepared with standard/sample diluent (assay diluent with 0.5% normal pooled human serum; assay diluent is composed of PBS/0.5% BSA/0.05% polysorbate-20/0.35 M NaCl/0.25% CHAPS/5mM EDTA/0.05% ProClin 300, pH 7.4±0.1). The plates are washed three times with 400 μl per well per cycle of wash buffer. Diluted standards, controls and samples are added to plates at 100 μl per well, in duplicate. The plates are incubated at room temperature with shaking for 2 hours +10 minutes. The plates arc washed four times with 400 μl per well per cycle of wash buffer. HRP conjugates diluted in conjugate buffer (PBS/0.5% BSA/0.05% polysorbate 20/0.05% ProClin 300, pH 7.4±0.1) are added at 100 μl per well. The plates are incubated at room temperature with shaking for 1 hour±5 minutes, following which the plates are washed four times with 400 μl per well per cycle of wash buffer. […] The plates are read using a 450 nm read wavelength and a 620 or 630 nm reference wavelength. […]
A general note: In an ELISA, binding on a coated surface is turned into a signal by an enzyme label.

The target is the same in assay [5]. Briefly: anti-CI clinical PK ELISA; coat 4.25B10.15 1 ug/mL; 8G8 4 ug/mL; against unspiked human serum. How it is done:
as §1

For assay [6] the target is unchanged. The experiment in a line: anti-CI clinical PK ELISA; coat 4.25B10.15 1 ug/mL; 8G8 8 ug/mL; against unspiked human serum. As to the method: as §1
For assay [7] the target is unchanged. Briefly: anti-CI clinical PK ELISA; coat 4.25B10.15 1 ug/mL; 8G8 16 ug/mL; against unspiked human serum. As to the method: as §1
Assay [8] shares this target. The experiment in a line: anti-CI clinical PK ELISA; coat 4.25B10.15 0.5 ug/mL; 8G8 1 ug/mL; against unspiked human serum. How it is done: as §1
Assay [9] has the same target. Briefly: anti-CI clinical PK ELISA; coat 4.25B10.15 0.5 ug/mL; 8G8 4 ug/mL; against unspiked human serum. How it is done: as §1
Assay [10] has the same target. The experiment in a line: anti-CI clinical PK ELISA; coat 4.25B10.15 0.5 ug/mL; 8G8 8 ug/mL; against unspiked human serum. How it is done: as §1
For assay [11] the target is unchanged. Briefly: anti-CI clinical PK ELISA; coat 4.25B10.15 1 ug/mL; 8G8 0.5 ug/mL; against unspiked human serum. How it is done: as §1
For assay [12] the target is unchanged. The experiment in a line: anti-CI clinical PK ELISA; coat 4.25B10.15 0.5 ug/mL; 8G8 16 ug/mL; against unspiked human serum. As to the method:
as §1

For assay [13] the target is unchanged. Briefly: anti-CI clinical PK ELISA; coat 4.25B10.15 0.75 ug/mL; 8G8 1 ug/mL; against unspiked human serum. How it is done: (§2) Microtiter plates are coated overnight at 2-8° C. with 100 μl per well of 0.75 μg/ml anti-CI idiotypic antibody (in 0.05 M sodium carbonate buffer, pH 9.6±0.1). The plates are washed three times with 400 μl per well per cycle of wash buffer. 200 μl per well of blocking buffer (PBS/0.5% BSA/0.05% polysorbate 20/0.05% ProClin 300, pH 7.4±0.1) is added, and the plates are incubated at room temperature with shaking for 1-3 hours. Standard curves are prepared with standard/sample diluent (assay diluent with 0.5% normal pooled human serum; assay diluent is composed of PBS/0.5% BSA/0.05% polysorbate-20/0.35 M NaCl/0.25% CHAPS/5mM EDTA/0.05% ProClin 300, pH 7.4±0.1). The plates are washed three times with 400 μl per well per cycle of wash buffer. Diluted standards, controls and samples are added to plates at 100 μl per well, in duplicate. The plates are incubated at room temperature with shaking for 2 hours +10 minutes. The plates arc washed four times with 400 μl per well per cycle of wash buffer. HRP conjugates diluted in conjugate buffer (PBS/0.5% BSA/0.05% polysorbate 20/0.05% ProClin 300, pH 7.4±0.1) are added at 100 μl per well. […] The plates are read using a 450 nm read wavelength and a 620 or 630 nm reference wavelength. […]

The target is the same in assay [14]. Briefly: anti-CI clinical PK ELISA; coat 4.25B10.15 0.75 ug/mL; 8G8 4 ug/mL; against unspiked human serum. As to the method: as §2
Assay [15] has the same target. The experiment in a line: anti-CI clinical PK ELISA; coat 4.25B10.15 0.75 ug/mL; 8G8 8 ug/mL; against unspiked human serum. How it is done: as §2
Assay [16] has the same target. The experiment in a line: anti-CI clinical PK ELISA; coat 4.25B10.15 1 ug/mL; 8G8 0.25 ug/mL; against unspiked human serum. As to the method: as §1
For assay [17] the target is unchanged. Briefly: anti-CI clinical PK ELISA; coat 4.25B10.15 0.5 ug/mL; 8G8 0.5 ug/mL; against unspiked human serum. As to the method: as §1
Assay [18] shares this target. Briefly: anti-CI clinical PK ELISA; coat 4.25B10.15 0.75 ug/mL; 8G8 16 ug/mL; against unspiked human serum. How it is done: as §2
Assay [19] shares this target. Briefly: anti-CI clinical PK ELISA; coat 4.25B10.15 1 ug/mL; 8G8 0.125 ug/mL; against unspiked human serum. As to the method:
as §1

Assay [20] shares this target. Briefly: anti-CI clinical PK ELISA; coat 4.25B10.15 0.5 ug/mL; 8G8 0.25 ug/mL; against unspiked human serum. How it is done: as §1
The target is the same in assay [21]. Briefly: anti-CI clinical PK ELISA; coat 4.25B10.15 0.75 ug/mL; 8G8 0.5 ug/mL; against unspiked human serum. As to the method: as §2
The target is the same in assay [22]. The experiment in a line: anti-CI clinical PK ELISA; coat 4.25B10.15 0.5 ug/mL; 8G8 0.125 ug/mL; against unspiked human serum. How it is done: as §1
The target is the same in assay [23]. Briefly: anti-CI clinical PK ELISA; coat 4.25B10.15 0.75 ug/mL; 8G8 0.25 ug/mL; against unspiked human serum. As to the method: as §2
The target is the same in assay [24]. The experiment in a line: anti-CI clinical PK ELISA; coat 4.25B10.15 0.75 ug/mL; 8G8 0.125 ug/mL; against unspiked human serum. As to the method:
as §2

Assay [25] has the same target. The experiment in a line: anti-CI clinical PK ELISA standard curve; anti-CI 5 ug/mL in 0.5% human serum pool; against background. As to the method:
as §2

The target is the same in assay [26]. Briefly: anti-CI clinical PK ELISA standard curve; anti-CI 10 ug/mL in 0.5% human serum pool; against background. As to the method:
as §2

Assay [27] shares this target. The experiment in a line: anti-CI clinical PK ELISA standard curve; anti-CI 20 ug/mL in 0.5% human serum pool; against background. As to the method: as §2
Assay [28] shares this target. Briefly: anti-CI clinical PK ELISA standard curve; anti-CI 2.5 ug/mL in 0.5% human serum pool; against background. As to the method: as §2
For assay [29] the target is unchanged. The experiment in a line: anti-CI clinical PK ELISA standard curve; anti-CI 1.25 ug/mL in 0.5% human serum pool; against background. How it is done:
as §2

Assay [30] has the same target. The experiment in a line: anti-CI clinical PK ELISA standard curve; anti-CI 0.156 ug/mL in 0.5% human serum pool; against background. How it is done:
as §2

For assay [31] the target is unchanged. Briefly: anti-CI clinical PK ELISA standard curve; anti-CI 0.313 ug/mL in 0.5% human serum pool; against background. How it is done: as §2
Assay [32] shares this target. The experiment in a line: anti-CI clinical PK ELISA standard curve; anti-CI 0.625 ug/mL in 0.5% human serum pool; against background. How it is done: as §2

T1 sequence (VH, as listed by the source, chain 1 of 2): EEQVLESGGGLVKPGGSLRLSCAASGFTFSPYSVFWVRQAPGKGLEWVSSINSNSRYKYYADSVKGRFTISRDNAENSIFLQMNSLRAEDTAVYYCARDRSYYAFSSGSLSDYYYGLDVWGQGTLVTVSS
T1 sequence (VL, as listed by the source, chain 2 of 2): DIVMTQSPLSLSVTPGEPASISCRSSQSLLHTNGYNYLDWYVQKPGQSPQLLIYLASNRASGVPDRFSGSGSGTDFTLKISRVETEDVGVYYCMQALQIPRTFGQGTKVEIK

B1: murine mAb 1.9E1.1 (antibody, IgG1, V domains shown)
VH: QVQLQQSGAELVMPGASVKMSCKASGYTFTDYWMYWVNQRPGQGLEWIGAIDTSDSYTTYNQNFKGKATLTVDESSSTAYMQLNSLTSEDSAVYYCARSGFPLFYYPMDYWGQGTSVTVSS
VL: QAVVTQESALTTSPGETVTLTCRSSTGAVTTSNYANWVQEKPDHLFTGLIGGTVNRAPGVPARFSGSLIGDKAALTITGAQTEDEAVYFCALWYSNHLVFGGGTKLTVL
notes: Used biotin-conjugated in the clinical PK ELISA and the LC-MS/MS capture; also called anti-gH idiotypic antibody; anti-gH anti-ID mAb
In turn, B1 showed a Kd in assay [1] of 0.1 nM. Besides, in assay [2], the “fold of OD in the presence of anti-gH over OD in the absence of anti-gH” value was above 2 fold.

B2: murine mAb 4.25B10.15 (antibody, IgG1, V domains shown)
VH: QVQLQQSGAELVRPGTSVKVSCKASGYAFTNYLIEWVKQRPGQGLEWIGVINPGSGGTNYNEKFEAKATLTADKSSSTAYMQLSSLTSDDSAVYFCARHGSSYWYFDVWGAGTTVTVSS
VL: DIVMTQSPATLSVTPGDRVSLSCRASQSISDYLHWYQQKSHESPRLLIKYASQSISGIPSRFSGSGSGSDFTLSINSVEPEDVGVYYCQNGHSFPYTFGGGTKLEIK
notes: also called anti-CI idiotypic antibody; anti-CI anti-ID mAb
In [3], B2 showed a Kd of 4.7 nM. Further, the Signal/bkgd ratio in [4] was 4.4 ratio; in [5] it was 10 ratio; in assay [6] it was 13 ratio; in [7] it was 13.8 ratio; in assay [8], 4.3 ratio; in assay [9] it was 10.4 ratio. The Signal/bkgd ratio in assay [10] was 12.3 ratio; in assay [11] it was 2.7 ratio; in assay [12], 14.7 ratio; in assay [13] it was 5.3 ratio; in [14], 13.3 ratio; in [15], 16.5 ratio. The Signal/bkgd ratio stood at 1.9 ratio in [16]; 2.7 ratio in assay [17]; 19.1 ratio in [18]; 1.4 ratio in assay [19]; 1.8 ratio in [20]; 3.2 ratio in assay [21]. The figures for the Signal/bkgd ratio in [22], in [23] and in assay [24] were 1.4 ratio, 2.1 ratio and 1.5 ratio, respectively. Further, the S/B ratio was determined as 13.6 ratio in [25]; 19.6 ratio in assay [26]; 22.3 ratio in assay [27]; 8.4 ratio in assay [28]; 4.9 ratio in assay [29]; 1.5 ratio in assay [30]. Besides, the S/B ratio in assay [31] is 2 ratio; in assay [32], 3 ratio.

In general, Kd refers to the concentration at which binding is half-saturated. Higher therefore signals a looser complex.
